Assay results taken from patent US20140087995A1 (published 2014).
Numbered stars: 1 amine (or outer) side, 2 acyl side, 3 side chain; on linkers, the order of the positions; unused ones are H or OH. Bridge positions count the residues as written; N and C are the ends. Side chains are listed from the residue outwards. Ends that are not written are not given here. * marks the point of attachment. C20 diacid = O=C(O)CCCCCCCCCCCCCCCCCCC(=O)*; γGlu = O=C(O)[C@H](CCC(=O)[*:2])N[*:1]; AEEA = NCCOCCOCC(=O)O

T1: rat calcitonin receptor (rat, UniProt P32214 25-516)
T1 construct: whole, on cells; Used as membranes prepared from the transfected cells; also called rCTR; rCT
T1 sequence (looked up): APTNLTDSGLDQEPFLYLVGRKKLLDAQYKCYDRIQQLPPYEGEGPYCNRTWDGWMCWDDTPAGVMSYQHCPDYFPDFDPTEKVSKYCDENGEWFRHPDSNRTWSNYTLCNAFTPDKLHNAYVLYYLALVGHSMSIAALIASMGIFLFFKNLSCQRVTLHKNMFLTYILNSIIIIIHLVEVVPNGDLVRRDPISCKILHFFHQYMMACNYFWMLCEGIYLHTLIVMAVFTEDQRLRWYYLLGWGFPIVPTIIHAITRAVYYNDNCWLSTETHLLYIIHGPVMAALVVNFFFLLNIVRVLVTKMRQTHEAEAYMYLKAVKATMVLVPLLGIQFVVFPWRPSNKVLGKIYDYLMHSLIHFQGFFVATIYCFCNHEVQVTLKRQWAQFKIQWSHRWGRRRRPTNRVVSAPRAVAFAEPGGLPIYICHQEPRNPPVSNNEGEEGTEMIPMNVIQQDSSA

T2: human calcitonin receptor (human, UniProt P30988 25-474)
T2 construct: whole, on cells; Used as membranes prepared from the transfected cells; also called hCTR; hCT
T2 sequence (looked up): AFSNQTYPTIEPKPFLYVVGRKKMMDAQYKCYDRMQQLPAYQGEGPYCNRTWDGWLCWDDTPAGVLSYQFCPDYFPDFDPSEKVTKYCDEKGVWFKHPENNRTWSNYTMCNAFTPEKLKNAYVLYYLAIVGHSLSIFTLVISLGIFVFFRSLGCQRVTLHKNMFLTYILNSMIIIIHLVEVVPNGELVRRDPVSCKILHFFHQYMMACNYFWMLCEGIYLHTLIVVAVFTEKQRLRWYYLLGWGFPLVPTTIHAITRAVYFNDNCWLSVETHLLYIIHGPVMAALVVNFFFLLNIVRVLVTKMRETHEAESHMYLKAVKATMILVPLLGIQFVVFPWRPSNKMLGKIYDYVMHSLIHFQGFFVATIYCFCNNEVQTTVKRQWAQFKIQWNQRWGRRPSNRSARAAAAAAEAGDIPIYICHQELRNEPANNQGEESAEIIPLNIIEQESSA

B1: N^ε1-[(4S)-4-carboxy-4-[[(4S)-4-carboxy-4-(19-carboxynonadecanoylamino)butanoyl]amino]butanoyl]-[His14,Arg17,Pro21,Pro27]-h-amylin (peptide)
peptide: K([γGlu-γGlu-C20 diacid])CNTATCATQRLAHFLRHSSPNFGAIPSSTNVGSNTY-NH2
modifications: disulfide 2-7; N-terminus assumed
SMILES: CC[C@H](C)[C@H](NC(=O)[C@H](C)NC(=O)CNC(=O)[C@H](Cc1ccccc1)NC(=O)[C@H](CC(N)=O)NC(=O)[C@@H]1CCCN1C(=O)[C@H](CO)NC(=O)[C@H](CO)NC(=O)[C@H](Cc1c[nH]cn1)NC(=O)[C@H](CCCNC(=N)N)NC(=O)[C@H](CC(C)C)NC(=O)[C@H](Cc1ccccc1)NC(=O)[C@H](Cc1c[nH]cn1)NC(=O)[C@H](C)NC(=O)[C@H](CC(C)C)NC(=O)[C@H](CCCNC(=N)N)NC(=O)[C@H](CCC(N)=O)NC(=O)[C@@H](NC(=O)[C@H](C)NC(=O)[C@@H]1CSSC[C@H](NC(=O)[C@@H](N)CCCCNC(=O)CC[C@H](NC(=O)CC[C@H](NC(=O)CCCCCCCCCCCCCCCCCCC(=O)O)C(=O)O)C(=O)O)C(=O)N[C@@H](CC(N)=O)C(=O)N[C@@H]([C@@H](C)O)C(=O)N[C@@H](C)C(=O)N[C@@H]([C@@H](C)O)C(=O)N1)[C@@H](C)O)C(=O)N1CCC[C@H]1C(=O)N[C@@H](CO)C(=O)N[C@@H](CO)C(=O)N[C@H](C(=O)N[C@@H](CC(N)=O)C(=O)N[C@H](C(=O)NCC(=O)N[C@@H](CO)C(=O)N[C@@H](CC(N)=O)C(=O)N[C@H](C(=O)N[C@@H](Cc1ccc(O)cc1)C(N)=O)[C@@H](C)O)C(C)C)[C@@H](C)O
notes: Analogue of human amylin; disulfide and C-terminal amide as told for h-amylin; also called compound 92
B2: N^ε1-[(4S)-4-carboxy-4-(19-carboxynonadecanoylamino)butanoyl]-[His14,Arg17,Pro21,Pro27]-h-amylin (peptide)
peptide: K([γGlu-C20 diacid])CNTATCATQRLAHFLRHSSPNFGAIPSSTNVGSNTY-NH2
modifications: disulfide 2-7; N-terminus assumed
SMILES: CC[C@H](C)[C@H](NC(=O)[C@H](C)NC(=O)CNC(=O)[C@H](Cc1ccccc1)NC(=O)[C@H](CC(N)=O)NC(=O)[C@@H]1CCCN1C(=O)[C@H](CO)NC(=O)[C@H](CO)NC(=O)[C@H](Cc1c[nH]cn1)NC(=O)[C@H](CCCNC(=N)N)NC(=O)[C@H](CC(C)C)NC(=O)[C@H](Cc1ccccc1)NC(=O)[C@H](Cc1c[nH]cn1)NC(=O)[C@H](C)NC(=O)[C@H](CC(C)C)NC(=O)[C@H](CCCNC(=N)N)NC(=O)[C@H](CCC(N)=O)NC(=O)[C@@H](NC(=O)[C@H](C)NC(=O)[C@@H]1CSSC[C@H](NC(=O)[C@@H](N)CCCCNC(=O)CC[C@H](NC(=O)CCCCCCCCCCCCCCCCCCC(=O)O)C(=O)O)C(=O)N[C@@H](CC(N)=O)C(=O)N[C@@H]([C@@H](C)O)C(=O)N[C@@H](C)C(=O)N[C@@H]([C@@H](C)O)C(=O)N1)[C@@H](C)O)C(=O)N1CCC[C@H]1C(=O)N[C@@H](CO)C(=O)N[C@@H](CO)C(=O)N[C@H](C(=O)N[C@@H](CC(N)=O)C(=O)N[C@H](C(=O)NCC(=O)N[C@@H](CO)C(=O)N[C@@H](CC(N)=O)C(=O)N[C@H](C(=O)N[C@@H](Cc1ccc(O)cc1)C(N)=O)[C@@H](C)O)C(C)C)[C@@H](C)O
notes: Analogue of human amylin; disulfide and C-terminal amide as told for h-amylin; also called compound 70
B3: N^ε1-[2-[2-[2-(19-carboxynonadecanoylamino)ethoxy]ethoxy]acetyl]-[His14,Arg17,Pro21,Pro27]-h-amylin (peptide)
peptide: K([AEEA-C20 diacid])CNTATCATQRLAHFLRHSSPNFGAIPSSTNVGSNTY-NH2
modifications: disulfide 2-7; N-terminus assumed
SMILES: CC[C@H](C)[C@H](NC(=O)[C@H](C)NC(=O)CNC(=O)[C@H](Cc1ccccc1)NC(=O)[C@H](CC(N)=O)NC(=O)[C@@H]1CCCN1C(=O)[C@H](CO)NC(=O)[C@H](CO)NC(=O)[C@H](Cc1c[nH]cn1)NC(=O)[C@H](CCCNC(=N)N)NC(=O)[C@H](CC(C)C)NC(=O)[C@H](Cc1ccccc1)NC(=O)[C@H](Cc1c[nH]cn1)NC(=O)[C@H](C)NC(=O)[C@H](CC(C)C)NC(=O)[C@H](CCCNC(=N)N)NC(=O)[C@H](CCC(N)=O)NC(=O)[C@@H](NC(=O)[C@H](C)NC(=O)[C@@H]1CSSC[C@H](NC(=O)[C@@H](N)CCCCNC(=O)COCCOCCNC(=O)CCCCCCCCCCCCCCCCCCC(=O)O)C(=O)N[C@@H](CC(N)=O)C(=O)N[C@@H]([C@@H](C)O)C(=O)N[C@@H](C)C(=O)N[C@@H]([C@@H](C)O)C(=O)N1)[C@@H](C)O)C(=O)N1CCC[C@H]1C(=O)N[C@@H](CO)C(=O)N[C@@H](CO)C(=O)N[C@H](C(=O)N[C@@H](CC(N)=O)C(=O)N[C@H](C(=O)NCC(=O)N[C@@H](CO)C(=O)N[C@@H](CC(N)=O)C(=O)N[C@H](C(=O)N[C@@H](Cc1ccc(O)cc1)C(N)=O)[C@@H](C)O)C(C)C)[C@@H](C)O
notes: Analogue of human amylin; disulfide and C-terminal amide as told for h-amylin; also called compound 90
B4: N^ε1-[(4S)-4-carboxy-4-[[(4S)-4-carboxy-4-(19-carboxynonadecanoylamino)butanoyl]amino]butanoyl]-[Glu14,Arg17,Pro21,Pro27,Arg35]-h-amylin (peptide)
peptide: K([γGlu-γGlu-C20 diacid])CNTATCATQRLAEFLRHSSPNFGAIPSSTNVGSRTY-NH2
modifications: disulfide 2-7; N-terminus assumed
SMILES: CC[C@H](C)[C@H](NC(=O)[C@H](C)NC(=O)CNC(=O)[C@H](Cc1ccccc1)NC(=O)[C@H](CC(N)=O)NC(=O)[C@@H]1CCCN1C(=O)[C@H](CO)NC(=O)[C@H](CO)NC(=O)[C@H](Cc1c[nH]cn1)NC(=O)[C@H](CCCNC(=N)N)NC(=O)[C@H](CC(C)C)NC(=O)[C@H](Cc1ccccc1)NC(=O)[C@H](CCC(=O)O)NC(=O)[C@H](C)NC(=O)[C@H](CC(C)C)NC(=O)[C@H](CCCNC(=N)N)NC(=O)[C@H](CCC(N)=O)NC(=O)[C@@H](NC(=O)[C@H](C)NC(=O)[C@@H]1CSSC[C@H](NC(=O)[C@@H](N)CCCCNC(=O)CC[C@H](NC(=O)CC[C@H](NC(=O)CCCCCCCCCCCCCCCCCCC(=O)O)C(=O)O)C(=O)O)C(=O)N[C@@H](CC(N)=O)C(=O)N[C@@H]([C@@H](C)O)C(=O)N[C@@H](C)C(=O)N[C@@H]([C@@H](C)O)C(=O)N1)[C@@H](C)O)C(=O)N1CCC[C@H]1C(=O)N[C@@H](CO)C(=O)N[C@@H](CO)C(=O)N[C@H](C(=O)N[C@@H](CC(N)=O)C(=O)N[C@H](C(=O)NCC(=O)N[C@@H](CO)C(=O)N[C@@H](CCCNC(=N)N)C(=O)N[C@H](C(=O)N[C@@H](Cc1ccc(O)cc1)C(N)=O)[C@@H](C)O)C(C)C)[C@@H](C)O
notes: Analogue of human amylin; disulfide and C-terminal amide as told for h-amylin; also called compound 89
B5: N^ε1-[(4S)-4-carboxy-4-[[(4S)-4-carboxy-4-(19-carboxynonadecanoylamino)butanoyl]amino]butanoyl]-[Glu14,Arg17,Pro21,Pro27,His34]-h-amylin (peptide)
peptide: K([γGlu-γGlu-C20 diacid])CNTATCATQRLAEFLRHSSPNFGAIPSSTNVGHNTY-NH2
modifications: disulfide 2-7; N-terminus assumed
SMILES: CC[C@H](C)[C@H](NC(=O)[C@H](C)NC(=O)CNC(=O)[C@H](Cc1ccccc1)NC(=O)[C@H](CC(N)=O)NC(=O)[C@@H]1CCCN1C(=O)[C@H](CO)NC(=O)[C@H](CO)NC(=O)[C@H](Cc1c[nH]cn1)NC(=O)[C@H](CCCNC(=N)N)NC(=O)[C@H](CC(C)C)NC(=O)[C@H](Cc1ccccc1)NC(=O)[C@H](CCC(=O)O)NC(=O)[C@H](C)NC(=O)[C@H](CC(C)C)NC(=O)[C@H](CCCNC(=N)N)NC(=O)[C@H](CCC(N)=O)NC(=O)[C@@H](NC(=O)[C@H](C)NC(=O)[C@@H]1CSSC[C@H](NC(=O)[C@@H](N)CCCCNC(=O)CC[C@H](NC(=O)CC[C@H](NC(=O)CCCCCCCCCCCCCCCCCCC(=O)O)C(=O)O)C(=O)O)C(=O)N[C@@H](CC(N)=O)C(=O)N[C@@H]([C@@H](C)O)C(=O)N[C@@H](C)C(=O)N[C@@H]([C@@H](C)O)C(=O)N1)[C@@H](C)O)C(=O)N1CCC[C@H]1C(=O)N[C@@H](CO)C(=O)N[C@@H](CO)C(=O)N[C@H](C(=O)N[C@@H](CC(N)=O)C(=O)N[C@H](C(=O)NCC(=O)N[C@@H](Cc1c[nH]cn1)C(=O)N[C@@H](CC(N)=O)C(=O)N[C@H](C(=O)N[C@@H](Cc1ccc(O)cc1)C(N)=O)[C@@H](C)O)C(C)C)[C@@H](C)O
notes: Analogue of human amylin; disulfide and C-terminal amide as told for h-amylin; also called compound 87

The binders below were run against T1, rat calcitonin receptor (assay: SPA competition with 125I-calcitonin, membranes with rat calcitonin receptor (Assay VIII)).

IC50 | Binder
104 nM | B1
34.2 nM | B2
18.2 nM | B3
115 nM | B4
94.5 nM | B5

What follows are binders tested against T1, rat calcitonin receptor (assay: ratio of binding IC50 at rat calcitonin receptor to IC50 at rat amylin receptor (reference)).

Ratio rCT/rAmylin binding | Binder
156 | B1
96.5 | B2
74.1 | B3
48.8 | B4
45.6 | B5

Each binder was assayed against T2, human calcitonin receptor (assay: ratio of binding IC50 at human calcitonin receptor to IC50 at human amylin receptor (reference)).
Procedure, shortened: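 Membranes (35 ng/μL final) + SPA beads, 50 mM Hepes pH 7.4 buffer with 1 mM CaCl2, 5 mM MgCl₂, 0.1% OA, 0.02% Tween20; 120 min, 25° C, shaking; centrifuged, counted; IC₅₀ by one-site binding competition.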

Ratio hCT/hAmylin binding | Binder
145 | B1
60.8 | B2
42.2 | B3
28 | B4
35.6 | B5
